From patent US20180086804A1 (COMMISSARIAT A L ENERGIE ATOMIQUE ET AUX ENERGIES …, published 2018)
No end group written: not given here.

B1: CCNB1 216-230 (peptide)
peptide: FRLLQETMYMTVSII-NH2
B2: CCNB1 202-216 (peptide)
peptide: RAILIDWLVQVQMKF-NH2
B3: CCNB1 363-377 (peptide)
peptide: PTLQHYLSYTEESLL-NH2
B4: CCNB1 168-182 (peptide)
peptide: SEYVKDIYAYLRQLE-NH2
B5: CCNB1 225-239 (peptide)
peptide: MTVSIIDRFMQNNCV-NH2
B6: CCNB1 237-251 (peptide)
peptide: NCVPKKMLQLVGVTA-NH2
B7: CCNB1 77-91 (peptide)
peptide: KKLPKPLEKVPMLVP-NH2
B8: CCNB1 87-101 (peptide)
peptide: PMLVPVPVSEPVPEP-NH2
B9: CCNB1 275-289 (peptide)
peptide: NTYTKHQIRQMEMKI-NH2
B10: CCNB1 327-341 (peptide)
peptide: MELTMLDYDMVHFPP-NH2
B11: CCNB1 385-399 (peptide)
peptide: H-KNVVMVNQGLTKHMT-NH2
modifications: not fully specified
B12: CCNB1 256-270 (peptide)
peptide: SKYEEMYPPEIGDFA-NH2
B13: CCNB1 351-365 (peptide)
peptide: LALKILDNGEWTPTL-NH2
B14: CCNB1 338-352 (peptide)
peptide: HFPPSQIAAGAFCLA-NH2
B15: CCNB1 303-317 (peptide)
peptide: LHFLRRASKIGEVDV-NH2
B16: CCNB1 17-31 (peptide)
peptide: AKINMAGAKRVPTAP-NH2
B17: CCNB1 377-391 (peptide)
peptide: LPVMQHLAKNVVMVN-NH2
B18: CCNB1 315-329 (peptide)
peptide: VDVEQHTLAKYLMEL-NH2
B19: CCNB1 1-15 (peptide)
peptide: MALRVTRNSKINAEN-NH2

Each binder was assayed against T1, HLA-DRB3 (HLA-DRB3*01:01) (human) (assay: competition ELISA vs biotin-LOL 191-210).
T1 construct: mature; purified from homozygous EBV-transformed lymphoblastoid cells with antibody L243
Binder B1 has a relative affinity of 11. With B2 the relative affinity was 2. B3 was tested, and the relative affinity was 11. In the case of B4, the relative affinity is reported as 30. B5 gave a relative affinity of 9.

What follows are binders tested against T2, HLA-DRB4 (HLA-DRB4*01:01) (human) (assay: competition ELISA vs biotin-E2/E168).
T2 construct: mature; purified from homozygous EBV-transformed lymphoblastoid cells with antibody L243
In the case of B6, the relative affinity is reported as 1400. With B7 the relative affinity was 75. B8 gave a relative affinity of 748. With B9 the relative affinity was 80. B10 gave a relative affinity of 139.

Molecular target: T2, HLA-DRB4 (HLA-DRB4*01:01)
Assay: competition ELISA vs biotin-E2/E168
Remark: another data set of the same source
With B1 the relative affinity was 22. With B2 the relative affinity was 20. With B3 the relative affinity was 5. Work on B5 yielded a relative affinity of 6.

The binders below were run against T3, HLA-DR4 (HLA-DRB1*04:01) (human) (assay: competition ELISA vs biotin-HA 306-318;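 note: HLA and competitor incubated 24 to 72 h, maximal signal taken from wells lacking competitor, background from wells lacking HLA molecule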).
T3 construct: mature; purified from homozygous EBV-transformed lymphoblastoid cells with antibody L243
B11 showed a relative affinity of 986. In the case of B8, the relative affinity is reported as 96. Work on B9 yielded a relative affinity of 456. Work on B12 yielded a relative affinity of 456. Work on B10 yielded a relative affinity of 22. In the case of B13, the relative affinity is reported as 1000.

What follows are binders tested against T4, HLA-DRB5 (HLA-DRB5*01:01) (human) (assay: competition ELISA vs biotin-HA 306-318;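 note: HLA and competitor incubated 24 to 72 h, maximal signal taken from wells lacking competitor, background from wells lacking HLA molecule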).
T4 construct: mature; purified from homozygous EBV-transformed lymphoblastoid cells with antibody L243
B11 showed a relative affinity of 52. With B9 the relative affinity was 50. B12 was tested, and the relative affinity was 603. B13 was tested, and the relative affinity was 3060.

These binders were tested against T5, HLA-DR11 (HLA-DRB1*11:01) (human) (assay: competition ELISA vs biotin-HA 306-318;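 note: HLA and competitor incubated 24 to 72 h, maximal signal taken from wells lacking competitor, background from wells lacking HLA molecule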).
T5 construct: mature; purified from homozygous EBV-transformed lymphoblastoid cells with antibody L243
B6 showed a relative affinity of 87. With B7 the relative affinity was 1630. With B11 the relative affinity was 766. B9 gave a relative affinity of 4. Work on B12 yielded a relative affinity of 1370. B10 showed a relative affinity of 216. Work on B13 yielded a relative affinity of 2330.

The binders below were run against T6, HLA-DR1 (HLA-DRB1*01:01) (human) (assay: competition ELISA vs biotin-HA 306-318;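 note: HLA and competitor incubated 24 to 72 h, maximal signal taken from wells lacking competitor, background from wells lacking HLA molecule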).
T6 construct: mature; class II HLA molecule purified from homozygous EBV-transformed lymphoblastoid cells with antibody L243
For B14, the relative affinity was 598. For B6, the relative affinity was 4. B11 showed a relative affinity of 4500. B8 gave a relative affinity of 1500. With B12 the relative affinity was 3. With B10 the relative affinity was 418. B13 showed a relative affinity of 648.

What follows are binders tested against T7, HLA-DR3 (HLA-DRB1*03:01) (human) (assay: competition ELISA vs biotin-MT 2-16).
T7 construct: mature; purified from homozygous EBV-transformed lymphoblastoid cells with antibody L243
Work on B15 yielded a relative affinity of 3. B16 was tested, and the relative affinity was 833.

These binders were tested against T8, HLA-DR7 (HLA-DRB1*07:01) (human) (assay: competition ELISA vs biotin-YKL).
T8 construct: mature; purified from homozygous EBV-transformed lymphoblastoid cells with antibody L243
For B17, the relative affinity was 13. B15 showed a relative affinity of 849. For B18, the relative affinity was 6. Work on B16 yielded a relative affinity of 3. For B19, the relative affinity was 2.

Molecular target: T7, HLA-DR3 (HLA-DRB1*03:01)
Assay: competition ELISA vs biotin-MT 2-16
Remark: another data set of the same source
In the case of B1, the relative affinity is reported as 1. Work on B2 yielded a relative affinity of 1. Binder B3 has a relative affinity of 1. B4 was tested, and the relative affinity was 97. For B5, the relative affinity was 1.

The binders below were run against T9, HLA-DR13 (HLA-DRB1*13:01) (human) (assay: competition ELISA vs biotin-B1 21-36).
T9 construct: mature; purified from homozygous EBV-transformed lymphoblastoid cells with antibody L243
B11 gave a relative affinity of 37. In the case of B9, the relative affinity is reported as 158.

Each binder was assayed against T10, HLA-DP402 (HLA-DPB1*04:02) (human, UniProt P20036 29-222) (assay: competition ELISA vs biotin-Oxy 271-287).
T10 construct: mature; purified from homozygous EBV-transformed lymphoblastoid cells with antibody B7/21
With B14 the relative affinity was 188. Work on B7 yielded a relative affinity of 474. For B11, the relative affinity was 2. B10 gave a relative affinity of 47. In the case of B13, the relative affinity is reported as 510.

The binders below were run against T11, HLA-DP401 (HLA-DPB1*04:01) (human, UniProt P20036 29-222) (assay: competition ELISA vs biotin-Oxy 271-287).
T11 construct: mature; purified from homozygous EBV-transformed lymphoblastoid cells with antibody B7/21
B7 was tested, and the relative affinity was 212. B11 was tested, and the relative affinity was 116. With B12 the relative affinity was 894. In the case of B10, the relative affinity is reported as 2.

Molecular target: T8, HLA-DR7 (HLA-DRB1*07:01)
Assay: competition ELISA vs biotin-YKL
Remark: another data set of the same source
With B14 the relative affinity was 1400. Work on B8 yielded a relative affinity of 231. B9 showed a relative affinity of 43. B12 was tested, and the relative affinity was 61. In the case of B13, the relative affinity is reported as 624.

The binders below were run against T12, HLA-DR15 (HLA-DRB1*15:01) (human) (assay: competition ELISA vs biotin-A3 152-166).
T12 construct: mature; purified from homozygous EBV-transformed lymphoblastoid cells with antibody L243
B1 gave a relative affinity of 3. B2 showed a relative affinity of 4. In the case of B3, the relative affinity is reported as 1. Binder B4 has a relative affinity of 12. With B5 the relative affinity was 2.

Molecular target: T10, HLA-DP402 (HLA-DPB1*04:02)
Assay: competition ELISA vs biotin-Oxy 271-287
Remark: another data set of the same source
B1 gave a relative affinity of 1. Work on B2 yielded a relative affinity of 14. B3 showed a relative affinity of 50. B4 was tested, and the relative affinity was 127. B5 gave a relative affinity of 35.

Molecular target: T11, HLA-DP401 (HLA-DPB1*04:01)
Assay: competition ELISA vs biotin-Oxy 271-287
Remark: another data set of the same source
B1 showed a relative affinity of 2. Work on B2 yielded a relative affinity of 47. B3 gave a relative affinity of 22. Work on B5 yielded a relative affinity of 72.

Molecular target: T3, HLA-DR4 (HLA-DRB1*04:01)
Assay: competition ELISA vs biotin-HA 306-318
Remark: another data set of the same source
For B1, the relative affinity was 2. B2 showed a relative affinity of 59. Binder B3 has a relative affinity of 76. In the case of B5, the relative affinity is reported as 100.

Molecular target: T4, HLA-DRB5 (HLA-DRB5*01:01)
Assay: competition ELISA vs biotin-HA 306-318
Remark: another data set of the same source
B1 was tested, and the relative affinity was 50. In the case of B2, the relative affinity is reported as 55. Work on B3 yielded a relative affinity of 24. B4 gave a relative affinity of 3. B5 showed a relative affinity of 79.

Molecular target: T5, HLA-DR11 (HLA-DRB1*11:01)
Assay: competition ELISA vs biotin-HA 306-318
Remark: another data set of the same source
Work on B1 yielded a relative affinity of 14. Binder B2 has a relative affinity of 400. Binder B3 has a relative affinity of 45. Binder B4 has a relative affinity of 3. B5 gave a relative affinity of 31.

Molecular target: T6, HLA-DR1 (HLA-DRB1*01:01)
Assay: competition ELISA vs biotin-HA 306-318
Remark: another data set of the same source
For B1, the relative affinity was 7. With B2 the relative affinity was 1220. With B3 the relative affinity was 28. B4 was tested, and the relative affinity was 22. For B5, the relative affinity was 24.

Molecular target: T9, HLA-DR13 (HLA-DRB1*13:01)
Assay: competition ELISA vs biotin-B1 21-36
Remark: another data set of the same source
For B4, the relative affinity was 12.

Molecular target: T12, HLA-DR15 (HLA-DRB1*15:01)
Assay: competition ELISA vs biotin-A3 152-166
Remark: another data set of the same source
In the case of B15, the relative affinity is reported as 17. B18 showed a relative affinity of 7. B16 was tested, and the relative affinity was 120. Binder B19 has a relative affinity of 5.

Molecular target: T9, HLA-DR13 (HLA-DRB1*13:01)
Assay: competition ELISA vs biotin-B1 21-36
Remark: another data set of the same source
B17 was tested, and the relative affinity was 2. With B15 the relative affinity was 1. B18 showed a relative affinity of 211. B16 gave a relative affinity of 21. With B19 the relative affinity was 58.

Molecular target: T8, HLA-DR7 (HLA-DRB1*07:01)
Assay: competition ELISA vs biotin-YKL
Remark: another data set of the same source
B1 gave a relative affinity of 0.5. With B2 the relative affinity was 9. For B3, the relative affinity was 1. For B4, the relative affinity was 346. Binder B5 has a relative affinity of 5.

Molecular target: T3, HLA-DR4 (HLA-DRB1*04:01)
Assay: competition ELISA vs biotin-HA 306-318
Remark: another data set of the same source
With B17 the relative affinity was 373. In the case of B15, the relative affinity is reported as 1390. Binder B19 has a relative affinity of 46.

Molecular target: T4, HLA-DRB5 (HLA-DRB5*01:01)
Assay: competition ELISA vs biotin-HA 306-318
Remark: another data set of the same source
For B17, the relative affinity was 4080. B15 gave a relative affinity of 1330. With B18 the relative affinity was 224. For B16, the relative affinity was 11. Binder B19 has a relative affinity of 374.

Molecular target: T5, HLA-DR11 (HLA-DRB1*11:01)
Assay: competition ELISA vs biotin-HA 306-318
Remark: another data set of the same source
With B17 the relative affinity was 3. B15 showed a relative affinity of 1. B18 showed a relative affinity of 632. B16 gave a relative affinity of 2. Binder B19 has a relative affinity of 22.

Molecular target: T6, HLA-DR1 (HLA-DRB1*01:01)
Assay: competition ELISA vs biotin-HA 306-318
Remark: another data set of the same source
Work on B17 yielded a relative affinity of 894. Work on B15 yielded a relative affinity of 495. Work on B18 yielded a relative affinity of 2450. B16 showed a relative affinity of 5. With B19 the relative affinity was 100.

Molecular target: T12, HLA-DR15 (HLA-DRB1*15:01)
Assay: competition ELISA vs biotin-A3 152-166
Remark: another data set of the same source
Binder B14 has a relative affinity of 257. B6 gave a relative affinity of 65. B11 was tested, and the relative affinity was 0.02. For B8, the relative affinity was 134. Binder B9 has a relative affinity of 85. For B12, the relative affinity was 153. B10 gave a relative affinity of 10. Binder B13 has a relative affinity of 52.

Molecular target: T7, HLA-DR3 (HLA-DRB1*03:01)
Assay: competition ELISA vs biotin-MT 2-16
Remark: another data set of the same source
Binder B11 has a relative affinity of 228. B10 showed a relative affinity of 32.
